The values below come from patent US20180360972A1 (REGENTS OF THE UNIVERSITY OF MINNESOTA, published 2018).

Square brackets hold non-standard residues; d marks the D form. d2Nal = N[C@H](Cc1ccc2ccccc2c1)C(=O)O

Experiment [1] has as its target human melanocortin-4 receptor (hMC4R), stably expressed in HEK293 cells (human, UniProt P32245 1-332). The experiment can be described thus: cell-based or functional assay.
The target in experiment [2] is hMC4R PRESTO-Tango plasmid construct, transiently expressed in HTLA cells (human, UniProt P32245 1-332). In words: cell-based or functional assay.
In experiment [3] the target is T1, mMC4R-HaloTag fusion protein (mouse, UniProt P56450 1-332, HaloTag NanoBRET 618 ligand bound to the HaloTag).
T1 construct: whole, on cells; not shown: HaloTag on the C-terminus
The experiment can be described thus: NanoBRET in transiently transfected cells; basal signal with assay buffer set as 100%. A general note: In BRET a luciferase serves as donor, and the signal depends on an acceptor being close.

Chain of hMC4R PRESTO-Tango plasmid construct, transiently expressed in HTLA cells (P32245 whole entry, the tested form may be a part): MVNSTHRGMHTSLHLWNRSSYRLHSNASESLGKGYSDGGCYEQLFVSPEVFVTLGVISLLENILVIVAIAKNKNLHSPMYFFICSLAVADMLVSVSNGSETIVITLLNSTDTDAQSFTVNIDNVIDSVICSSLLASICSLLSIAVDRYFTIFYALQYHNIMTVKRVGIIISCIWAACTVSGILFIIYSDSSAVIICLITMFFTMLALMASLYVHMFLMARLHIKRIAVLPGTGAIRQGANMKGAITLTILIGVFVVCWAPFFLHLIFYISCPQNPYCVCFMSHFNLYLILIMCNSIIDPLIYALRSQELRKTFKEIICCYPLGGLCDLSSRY
Chain of human melanocortin-4 receptor (hMC4R), stably expressed in HEK293 cells (P32245 whole entry): as the sequence (P32245 whole entry, the tested form may be a part) above

B1: equal mixture of tetrapeptides CJL-1-14+CJL-1-80 (other)
peptide 1: Ac-H[dF]RW-NH2
peptide 2: Ac-H[d2Nal]RW-NH2
modifications: also: 1:1 mixture of two separate peptides
Consider B1, for which the “cAMP signaling (AlphaScreen), EC50” value in experiment [1] turned out to be 1.9 nM.

B2: CJL-1-80, Ac-His-DNal(2')-Arg-Trp-NH2 (peptide)
peptide: Ac-H[d2Nal]RW-NH2
On to B2, for which, in experiment [2], the “β-arrestin recruitment, response at 10 µM relative to the maximal efficacy of NDP-MSH” value stood at 30%.

B3: mMC4R-NanoLuc fusion protein (receptor, mouse, UniProt P56450 1-332, looked up)
chain: MNSTHHHGMYTSLHLWNRSSYGLHGNASESLGKGHPDGGCYEQLFVSPEVFVTLGVISLLENILVIVAIAKNKNLHSPMYFFICSLAVADMLVSVSNGSETIVITLLNSTDTDAQSFTVNIDNVIDSVICSSLLASICSLLSIAVDRYFTIFYALQYHNIMTVRRVGIIISCIWAACTVSGVLFIIYSDSSAVIICLISMFFTMLVLMASLYVHMFLMARLHIKRIAVLPGTGTIRQGTNMKGAITLTILIGVFVVCWAPFFLHLLFYISCPQNPYCVCFMSHFNLYLILIMCNAVIDPLIYALRSQELRKTFKEIICFYPLGGICELSSRY
notes: whole, on cells; not shown: NanoLuc on the C-terminus
For the molecule B3, the binding result in experiment [3] is reported as “binds”.
